# Substitutions are numbered along the chain they refer to.
# B1: scFv-3C (scFv)
# scFv: QVQLVQSGGGLVQPGGSLRLSCAASGFTFSSYAMHWVRQAPGKGLEWVTVISPDGHNTYYADSVKGRFTISRDNSKNTLYLQMNSLRAEDTAVYYCARASVGATGPFDIWGQGTLVTVSSASTGGGGSGGGGSGGGGSGGGGSSSELTQPPSVSVAPGQTVTITCQGDSLRSYYASWYQQKPGTAPKLLIYGENNRPSGVPDRFSGSSSGTSASLTITGAQAEDEADYYCNSRDSSGTHLTVFGGGTKLTVLGGGSGGC
# notes: also called clone 3
# B2: scFv-7C (scFv)
# scFv: B1 scFv with T49S, D54A, H56P
# notes: also called clone 7
# B3: scFv-8C (scFv)
# scFv: B1 scFv with D54S
# notes: also called clone 8
# B4: scFv-9C (scFv)
# scFv: B1 scFv with D54N
# notes: also called clone 9
# B5: scFv-10C (scFv)
# scFv: B1 scFv with T49S, V50A, D54P
# notes: also called clone 10
# B6: scFv-11C (scFv)
# scFv: B1 scFv with T49A, P53H, D54H, H56S
# notes: also called clone 11
# B7: scFv-13C (scFv)
# scFv: B1 scFv with D54T, H56A
# notes: also called clone 13
# B8: scFv-16C (scFv)
# scFv: B1 scFv with T49S, P53N, D54N
# B9: scFv-19C (scFv)
# scFv: B1 scFv with T49S, D54P
# B10: scFv-2C (scFv)
# scFv: B1 scFv with T49S, D54A, H56R, T58K
# notes: also called clone 2
# B11: scFv-4C (scFv)
# scFv: B1 scFv with D54H, H56R, T58K
# notes: also called clone 4
# B12: scFv-20 (scFv)
# scFv: QVQLVQSGGGLVQPGGSLRLSCAASGFTFSSYAMHWVRQAPGKGLEWVTVISHDGTNTYYADSVKGRFTISRDNSKNTLYLQMNSLRAEDTAVYYCARASVGATGPFDIWGQGTLVTVSSASTGGGGSGGGGSGGGGSGGGGSSSELTQPPSVSVAPGQTVTITCQGDSLRSYYASWYQQKPGTAPKLLIYGENNRPSGVPDRFSGSSSGTSASLTITGAQAEDEADYYCNSRDSSGTHLTVFGGGTKLTVLG
# B13: scFv-21 (scFv)
# scFv: B12 scFv with H53R, D54H, T56N, T58K
# B14: scFv-22 (scFv)
# scFv: B12 scFv with H53P, D54G, T56P, T58K
# B15: scFv-3 (scFv)
# scFv: B12 scFv with H53P, T56H
# Target: T1, His6-tagged recombinant human EphA2 protein (human, UniProt P29317 25-534)
# T1 construct: also called his-tagged recombinant, human EphA2; human EphA2 with c-terminal His6
# Assay: BLI (Octet Red 96); His6-EphA2 on anti-His sensors; slope of association curve of scFv-PEG-DSPE conjugate; TS1C printed as 100
# Excerpt: (§1) A nucleic acid encoding human EphA2 with c-terminal His6 appended was cloned into expression vector pCEP4 (Invitrogen® # V044-50) and transiently expressed in FreeStyle™ 293 cells (Invitrogen® #K900001) following polyethylenenimine transfection. The His6-tagged recombinant human EphA2 protein was purified from the cell culture medium using Ni-NTA Sepharose™ resin (Quiagen®, USA). Anti-His sensors for the fortéBIO® Octet Red 96 system (fortéBIO®-Pall® #18-5116) were coated with his-tagged recombinant, human EphA2 at concentration of 10 μg/ml protein for 300 sec, and a background run was carried out in PBS for 60 sec. For scFv-PEG-DSPE conjugates, the sensors were then incubated with 2.5 μg/ml (Study 1) or 4.0 μg/ml (Study 2) of the conjugate in PBS, pH 7.4, and the slopes of association curves were determined between 3-13 seconds of incubation, corrected for the buffer-only background, and compared across the variants. ScFv-linked liposomes were incubated with the sensors in PBS at 0.025 mM of liposome phospholipid, the slopes of the association curves were determined between 3-20 seconds of incubation, corrected for the buffer-only background, and compared across the variants.
# (§2) Results are shown below in Table 6, in which column A gives scFv identifiers; column B indicates percent yield of scFv/lipopolymer linker conjugates; column C gives percent scFv-conjugate (not liposome-bound) EphA2 binding on-rate; column D gives percent scFv-conjugated-liposome EphA2 binding on-rate; and columns E (Study 1) and F (study 2) give percent antigen binding on-rate remaining in the scFv-conjugate (not liposome-bound) following thermal stress.
# T1 sequence (P29317 25-534 limits assumed): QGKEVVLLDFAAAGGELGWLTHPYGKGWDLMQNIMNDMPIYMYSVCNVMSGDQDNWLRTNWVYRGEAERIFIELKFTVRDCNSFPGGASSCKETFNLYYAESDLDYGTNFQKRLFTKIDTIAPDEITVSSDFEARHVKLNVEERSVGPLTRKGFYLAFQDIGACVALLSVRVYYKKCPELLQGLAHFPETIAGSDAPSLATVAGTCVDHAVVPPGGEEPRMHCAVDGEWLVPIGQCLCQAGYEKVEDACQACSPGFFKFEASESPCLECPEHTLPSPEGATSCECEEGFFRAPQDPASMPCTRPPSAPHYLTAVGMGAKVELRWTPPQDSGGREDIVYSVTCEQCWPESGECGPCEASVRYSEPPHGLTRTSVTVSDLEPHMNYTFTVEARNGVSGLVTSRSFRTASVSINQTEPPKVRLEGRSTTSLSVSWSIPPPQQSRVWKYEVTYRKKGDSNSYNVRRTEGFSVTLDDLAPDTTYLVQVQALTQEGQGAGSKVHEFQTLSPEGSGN
row,Binder,percent scFv-conjugate (not liposome-bound) EphA2 binding on-rate [%]
1,B1,112
2,B2,110
3,B3,113
4,B4,114
5,B5,104
6,B6,109
7,B7,105
8,B8,128
9,B9,112
10,B10,105
11,B11,97.3

# Target: T1, His6-tagged recombinant human EphA2 …
# Assay: BLI (Octet Red 96); His6-EphA2 on anti-His sensors; scFv-PEG-DSPE conjugate at 4.0 ug/ml after thermal stress
# Excerpt: as §1, §2
row,Binder,percent antigen binding on-rate remaining in the scFv-conjugate following thermal stress (Study 2) [%]
1,B1,46.9
2,B2,4.8
3,B3,7.3
4,B4,12.2
5,B5,98.8
6,B6,-0.09
7,B7,9
8,B8,4.6
9,B9,5.1
10,B10,26.9
11,B11,5.6

# Target: Staphylococcus aureus Protein A (Staphylococcus aureus, UniProt P38507 37-477)
# Assay: Protein A binding measured as in Example 1, compared to TS1C
# Description: Protein A binding for multiple samples was determined as follows: scFvs expressed by mammalian cells were obtained from cultures by centrifugation at 4000 g for 15 minutes to remove cells. The scFv titer in the supernatant was determined using Fortebio. Protein A binding was assayed using a 96 well Protein A plate (Protein A 96 well protein purification plate (GE Healthcare: Life Sciences, Protein A HP MultiTrap®) which contains Protein A-conjugated resin in wells with porous bottoms, allowing liquid in the wells to be collected from underneath via centrifugation or suction. Each well of the plate was washed with 1×PBS, and supernatant containing 250 μg of protein was loaded into each well. The supernatant is then separated from the Protein A resin using a vacuum manifold (Whatman®) with 10 mbar of pressure and the flow-through from each well separately collected into empty wells of a standard 96 well plate. The wells of the Protein A plate were then washed with 600 μL of 1×PBS (pH 7.6). To elute the resin-bound Ab, 200 μL of 0.1M acetic acid was added to each well and incubated at room temperature for 3-10 minutes. The plate was placed over a second plate to capture eluate and centrifuged at 100×g for 2 minutes, and 20 μL of 1M Tris, pH 8.0 was added to neutralize the Abs in the eluate. To determine the percentage of Protein A binding, the concentration of scFv remaining in the flow-through was compared to the amount of protein (250 ug) loaded originally.
# The fold improvement in Protein A binding capacity (as compared to TS1C) was measured as described in Example 1.
row,Binder,Fold Improvement in Protein A Binding Capacity [fold]
1,B1,6
2,B2,10.3
3,B5,12.3
4,B6,8.5
5,B10,5.5
6,B11,5.8

# Target: T1, His6-tagged recombinant human EphA2 …
# Assay: BLI (Octet Red 96); His6-EphA2 on anti-His sensors; slope of association curve of scFv-linked liposomes at 0.025 mM phospholipid; TS1C printed as 100
# Excerpt: as §1, §2
row,Binder,percent scFv-conjugated-liposome EphA2 binding on-rate [%]
1,B1,119
2,B2,119
3,B3,133
4,B4,118
5,B5,110
6,B6,120
7,B7,120
8,B8,113
9,B9,129
10,B10,117
11,B11,118

# Target: T2, human EphA2 on OVCAR-3 and U-251 cells (human, UniProt P29317 24-976)
# T2 construct: whole, on cells; also called EphA2 receptors
# Assay: CLIA: scFv-decorated fluorescent NTA(Ni) liposomes on EphA2-expressing cells, FACS
# Description: To test the anti-EphA2 activity of these variant scFvs, the binding and internalization of liposomes externally decorated with these Abs was assayed on cell lines expressing EphA2. A rapid high-throughput Chelated Ligand-induced Internalization Assay (CLIA) (Nielsen et al., BMC immunology, 2006, 7:24) was used to screen anti-EphA2-scFv-targeted liposomes for binding and internalization assessment. Two cell lines that express high levels of EphA2 receptors, OVCAR-3 and U-251, were tested, as well as a murine EphA2-expressing mouse cell line, CT-26 (to test whether cross-reactivity to murine EphA2 was retained by the engineered scFvs). Via nickel-binding by each scFv's c-terminal His6 tag, the scFvs were bound to fluorescently labeled liposomes comprising an NTA(Ni) conjugated lipid (Dil5-NTA liposomes).
# Dil5-NTA liposomes were prepared as follows. The NTA conjugated lipid, DOD-Tri-NTA, was synthesized as described in Huang et al., Bioconjugate chemistry, 2006, vol. 17, p. 1592-1600. Hydrogenated soy phosphatidylcholine (HSPC), cholesterol, methoxy-PEG(2000)-distearoylphosphatidylethanolamine (PEG-DSPE), DOD-tri-NTA, and a fluorescent lipid dye, Dil5, (ThermoFisher® Invitrogen® Molecular Probes™, cat. # D12370) were combined in a chloroform solution at the molar ratio of 100:66.7:5:0.5:0.3 respectively and the solution evaporated under vacuum to dryness forming a lipid film. The film was hydrated in HEPES-buffered physiological saline (“HBS-6.5”—5 mM HEPES, 144 mM NaCl pH 6.5) at 68° C., the resulting lipid suspension was subjected to several cycles of freezing (dry ice-acetone) and thawing (68C), and extruded through two stacked polycarbonate membranes (Whatman Nuclepore, USA) with the pore size of 200 nm (6 times) and 100 nm (10 times) using Lipex™ thermobarrel extruder (Northern Lipids, Canada). This protocol typically produces unilamellar vesicles with the z-average size of 100-110 nm and polydispersity index less than 0.1. The extruded liposomes were chilled to room temperature, purified by gel-chromatography on a Sephadex® G-75 (GE Healthcare) column eluted with HBS-6.5, and then sterilized by passage through a 0.2-μm filter. The concentration of liposomal phospholipid was then determined after acid digestion using spectrophotometric phosphomolybdate method.
# T2 sequence (P29317 24-976): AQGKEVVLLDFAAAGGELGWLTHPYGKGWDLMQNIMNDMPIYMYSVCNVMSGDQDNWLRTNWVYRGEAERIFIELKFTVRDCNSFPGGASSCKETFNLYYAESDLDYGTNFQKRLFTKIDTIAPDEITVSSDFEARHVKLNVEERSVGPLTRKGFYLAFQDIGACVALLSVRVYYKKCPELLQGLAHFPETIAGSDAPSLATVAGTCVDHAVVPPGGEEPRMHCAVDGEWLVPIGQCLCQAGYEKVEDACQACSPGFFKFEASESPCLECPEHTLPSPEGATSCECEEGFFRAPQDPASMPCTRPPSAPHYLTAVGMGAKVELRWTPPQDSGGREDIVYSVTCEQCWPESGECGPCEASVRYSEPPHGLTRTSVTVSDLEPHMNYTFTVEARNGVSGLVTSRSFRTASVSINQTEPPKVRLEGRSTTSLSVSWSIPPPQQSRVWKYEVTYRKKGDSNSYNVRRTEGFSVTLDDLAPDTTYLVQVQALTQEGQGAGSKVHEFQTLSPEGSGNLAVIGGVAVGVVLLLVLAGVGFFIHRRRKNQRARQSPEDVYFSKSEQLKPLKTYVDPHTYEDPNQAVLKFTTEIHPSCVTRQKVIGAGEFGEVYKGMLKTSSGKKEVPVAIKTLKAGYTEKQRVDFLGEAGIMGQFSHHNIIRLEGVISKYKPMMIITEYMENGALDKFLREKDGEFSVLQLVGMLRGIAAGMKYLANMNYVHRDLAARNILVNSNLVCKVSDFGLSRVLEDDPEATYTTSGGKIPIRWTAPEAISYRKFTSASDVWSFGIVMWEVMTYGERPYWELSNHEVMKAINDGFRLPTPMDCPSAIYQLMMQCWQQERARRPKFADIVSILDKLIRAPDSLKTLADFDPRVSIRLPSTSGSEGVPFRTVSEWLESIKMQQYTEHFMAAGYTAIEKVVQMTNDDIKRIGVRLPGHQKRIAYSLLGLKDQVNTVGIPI
row,Binder,binding result
1,B12,binds
2,B13,binds
3,B14,binds
4,B15,binds

# Target: T1, His6-tagged recombinant human EphA2 …
# Assay: BLI (Octet Red 96); His6-EphA2 on anti-His sensors; scFv-PEG-DSPE conjugate at 2.5 ug/ml after thermal stress
# Excerpt: as §1, §2
row,Binder,percent antigen binding on-rate remaining in the scFv-conjugate following thermal stress (Study 1) [%]
1,B1,56.5
2,B2,5.8
3,B3,19.8
4,B4,25.2
5,B5,88.9
6,B6,1.6
7,B7,18.2
8,B10,44.6
9,B11,8.6
